Test results reported in article PMC5234079, “Structural basis of human PCNA sliding on DNA”.
Each block holds one molecule with its values, some of them ahead of it.

Columns and labels:
[1] = target: Human PCNA (proliferating cell nuclear antigen) (human); assay: crystal structure; co-crystal of PCNA with a 10 bp dsDNA, hanging drop, 20 °C, 11% PEG 3350, 0.1 M sodium acetate pH 4.5; space group H3, 2.8 Å
PCNA = PCNA (human, UniProt P12004 1-261); assay: NMR; 1H-15N TROSY titration, T73 CSP, single-site model; text gives ~0.7 mM; NMR: 100 uM PCNA, 20 mM sodium phosphate, 50 mM NaCl, pH 7.0, 20 uM DSS, 0.01% NaN3, 5% 2H2O, 35 C; conditions: protein: recombinant; tags: N-terminal His6 and PreScission site, cleaved; residual GPH- at N terminus; chain copies: 3; blunt
PCNA, sequence (P12004 whole entry): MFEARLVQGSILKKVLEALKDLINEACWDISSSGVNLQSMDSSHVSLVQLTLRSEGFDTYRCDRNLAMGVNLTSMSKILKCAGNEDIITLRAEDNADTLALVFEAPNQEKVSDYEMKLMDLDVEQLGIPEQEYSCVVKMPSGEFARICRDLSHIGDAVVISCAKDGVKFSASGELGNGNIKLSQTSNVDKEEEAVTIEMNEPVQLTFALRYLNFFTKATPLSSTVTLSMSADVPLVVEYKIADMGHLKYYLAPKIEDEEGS

stoichiometry N [1]: 3
Molecule: Human PCNA (proliferating cell nuclear antigen) (natural protein)

B1: 10 bp dsDNA (dsDNA)
DNA 1: ATACGATGGG
DNA 2: CCCATCGTAT
Kd (PCNA): 700 ± 100 µM
